According to paper PMC13219714, “μ₃-Oxo nucleophile formation enables efficient SN2 hydrolysis at the trinuclear metal center in inorganic pyrophosphatase” (Communications Chemistry, 2026):
Where a chain is given by its changes, count along the chain named. Names may count otherwise.

T1: ShPPase (Family II inorganic pyrophosphatase from Shewanella sp. AS-11) (Shewanella sp. AS-11, UniProt L8AXY8)
T1 construct: gene ppia; recombinant from pET16b in E. coli BL21(DE3); purified as previously described
T1 sequence (L8AXY8 2-308): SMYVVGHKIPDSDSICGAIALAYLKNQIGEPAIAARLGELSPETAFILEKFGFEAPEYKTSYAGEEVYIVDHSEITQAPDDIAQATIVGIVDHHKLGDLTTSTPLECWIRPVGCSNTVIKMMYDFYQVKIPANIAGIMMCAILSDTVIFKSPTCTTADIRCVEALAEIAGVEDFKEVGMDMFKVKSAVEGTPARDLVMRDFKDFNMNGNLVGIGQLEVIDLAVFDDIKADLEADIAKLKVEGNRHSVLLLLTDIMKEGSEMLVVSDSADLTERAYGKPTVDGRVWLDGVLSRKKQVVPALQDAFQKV

B1: ShPPase (Family II inorganic pyrophosphatase from Shewanella sp. AS-11) (Shewanella sp. AS-11) (protein)
chain: T1 sequence (L8AXY8 2-308)
notes: recombinant from pET16b in E. coli BL21(DE3); purified as previously described
B2: ShPPase (Family II inorganic pyrophosphatase from Shewanella sp. AS-11) (Shewanella sp. AS-11; D14N) (protein)
chain: T1 sequence (L8AXY8 2-308) with D13N
notes: as for B1
B3: ShPPase (Family II inorganic pyrophosphatase from Shewanella sp. AS-11) (Shewanella sp. AS-11; D14A) (protein)
chain: T1 sequence (L8AXY8 2-308) with D13A
notes: as for B1

What was measured:
[1] = target: T1, ShPPase (Family II inorganic pyrophosphatase from Shewanella sp. AS-11); experiment: Zn K-edge XANES / EXAFS; type: binding; conditions: Zn2+-ShPPase 1.1 mM, 0.1 M PNP, 0.1 M MgCl2, pH 7.5; active site, trinuclear metal center
[2] = substrate: O=P(O)(O)OP(=O)(O)O; experiment: molybdenum blue phosphate release; type: biochemical, Shewanella sp. AS-11; conditions: Zn2+-activated enzyme, 5 mM MgCl2, 50 mM KCl, 100 mM Tris-HCl pH 7.5, 25 °C
Text: molybdenum blue phosphate release on ShPPase (Family II inorganic pyrophosphatase from Shewanella sp. AS-11)

[3] = primers for D14N and D14A appear exchanged

Row | Molecule | Zn K-edge XANES / EXAFS [1] | Km [2] | kcat [2] | kcat/Km [2] | Km [2, 3] | kcat [2, 3] | kcat/Km [2, 3]
1 | O=P(O)(O)NP(=O)(O)O [PNP, imidodiphosphate] | Zn²⁺ ions are predominantly five-coordinate in the substrate-free form, but transition to six-coordinate upon PNP binding | – | – | – | – | – | –
2 | B1 | – | 79 ± 18 µM | 99.8 ± 5.5 s⁻¹ | 1.26e+06 M⁻¹ s⁻¹ | – | – | –
3 | B2 | – | – | – | – | 100 ± 20 µM | 0.034 ± 0.002 s⁻¹ | 340 M⁻¹ s⁻¹
4 | B3 | – | 179 ± 37 µM | 0.019 ± 0.001 s⁻¹ | 110 M⁻¹ s⁻¹ | – | – | –
